Experimental findings from US9289478B2, “Formulations of tumour-associated peptides binding to human leukocyte antigen (HLA) class I or class II molecules for vaccine” (IMMATICS BIOTECHNOLOGIES GMBH, priority 2008, dated 2016) are described below.

Ends that are not written are not given here.

Format in all cases: physicochemical
Data set [1] in a line: HPLC-assay for stability of peptides in lyophilised formulation on storage for 3 months (Example 4). The note with it: for stability of peptides in formulation, 1 M: 1 month; for stability of peptides in formulation, 2 M: 2 months; for stability of peptides in formulation, 3 M: 3 months. How it is done: (§1) Identity, purity and peptide content are determined by analytical RP-HPLC chromatography. Detection wavelength was 220 nm.

Data set [2] in a line: HPLC-assay for in-use stability after reconstitution with 4.2% sodium hydrogen carbonate solution (Example 3, peptides SEQ ID NO 11-23). How it is done: For clinical trials the above described formulation is dissolved in 700 μl sodium hydrogen carbonate (4.2%). To dissolve the lyophilisate, the vial and the diluent shall be shaken vigorously for 1 minute, check whether solution is clear, otherwise continue shaking for another minute until the solution is clear. Administration of 500 μL of the solution has to occur within 1 h after reconstitution. Dissolved lyophilisate may be stored aseptically at room temperature for up to 1 hour following reconstitution.
as §1

The nature of data set [3]: Solubility of peptide in 90% acetic acid and in water. The text has this:
Advantageously, the formulation according to the invention is suitable for stable formulations containing very hydrophobic peptides (for example IMA-CHI-001; SEQ ID NO: 23).

As to “NLDTLMTYV (listed as Homo sapiens) [NLGN4X-001, Neuroligin 4, X-linked peptide]”, the entries for the “stability of peptides in formulation, 1 M” value (shortened to “stability of peptides … 1 M”) in data set [1] (+5° C. +/- 3° C.), in data set [1] (+25° C. +/- 2° C.) and in data set [1] (-20° C. +/- 5° C.) were 99.12 % of Initial, 97.90 % of Initial and 99.05 % of Initial, respectively. In addition, the “stability of peptides in formulation, 2 M” value (from here on “stability of peptides … 2 M”) in data set [1] (+5° C. +/- 3° C.) is recorded as 98.24 % of Initial; in data set [1] (+25° C. +/- 2° C.) it was 96.30 % of Initial; in data set [1] (-20° C. +/- 5° C.), 97.60 % of Initial. Further, the “stability of peptides in formulation, 3 M” value (“stability of peptides … 3 M” for short) in data set [1] (+5° C. +/- 3° C.) was 98.84 % of Initial; in data set [1] (+25° C. +/- 2° C.), 96.41 % of Initial; in data set [1] (-20° C. +/- 5° C.), 98.62 % of Initial. Moreover, the “stability of peptides in formulation, INITIAL” value (“stability of peptides … INITIAL” for short) in data set [1] (+5° C. +/- 3° C.), in data set [1] (+25° C. +/- 2° C.) and in data set [1] (-20° C. +/- 5° C.) was 100.0% each time. Also, the “in-use stability, Peptide [%]” value is listed as 100.8% in data set [2] (+Mannitol/Lutrol, 2h); 100.9% in data set [2] (+Mannitol/Lutrol, 4h); 100.5% in data set [2] (+Mannitol/Lutrol, 6h); 100.0% in data set [2] (+Mannitol/Lutrol, Initial); 99.9% in data set [2] (no excipients, 2h); 100.5% in data set [2] (no excipients, 4h). Moreover, the “in-use stability, Peptide [%]” value in data set [2] (no excipients, 6h) is on record as 95.7%; in data set [2] (no excipients, Initial) it was 100.0%.

On to SLWAGVVVL [CHI-001], for which, in data set [3] (90% acetic acid), the solubility was ~2900 µg/mL. For the same sequence, the solubility in water entry in data set [3] (water) is “very insoluble”. Also, the “in-use stability, Peptide [%]” value in data set [2] (+Mannitol/Lutrol, 2h) turned out to be 100.0%; in data set [2] (+Mannitol/Lutrol, 6h), 100.2%; in data set [2] (+Mannitol/Lutrol, Initial) it was 100.0%; in data set [2] (no excipients, 2h) it was 102.2%; in data set [2] (no excipients, 6h), 90.6%; in data set [2] (no excipients, Initial), 100.0%.

On to “TFSYVDPVITSISPKYG (listed as Homo sapiens) [MET-005, Met proto-oncogene peptide]”, for which the figures for the “stability of peptides … 1 M” value in data set [1] (+5° C. +/- 3° C.), in data set [1] (+25° C. +/- 2° C.) and in data set [1] (-20° C. +/- 5° C.) were 99.06 % of Initial, 97.49 % of Initial and 99.14 % of Initial, respectively. In addition, the entries for the “stability of peptides … 2 M” value in data set [1] (+5° C. +/- 3° C.), in data set [1] (+25° C. +/- 2° C.) and in data set [1] (-20° C. +/- 5° C.) were 97.92 % of Initial, 96.13 % of Initial and 97.54 % of Initial, respectively. Further, the “stability of peptides … 3 M” value in data set [1] (+5° C. +/- 3° C.) was 98.59 % of Initial; in data set [1] (+25° C. +/- 2° C.), 97.21 % of Initial; in data set [1] (-20° C. +/- 5° C.), 99.00 % of Initial. The “stability of peptides … INITIAL” value in data set [1] (+5° C. +/- 3° C.), in data set [1] (+25° C. +/- 2° C.) and in data set [1] (-20° C. +/- 5° C.) was 100.0% each time. In addition, the “in-use stability, Peptide [%]” value was found to be 100.5% in data set [2] (+Mannitol/Lutrol, 2h); 100.7% in data set [2] (+Mannitol/Lutrol, 4h); 100.4% in data set [2] (+Mannitol/Lutrol, 6h); 100.0% in data set [2] (+Mannitol/Lutrol, Initial); 100.3% in data set [2] (no excipients, 2h); 100.7% in data set [2] (no excipients, 4h). Besides, the “in-use stability, Peptide [%]” value in data set [2] (no excipients, 6h) stood at 96.0%; in data set [2] (no excipients, Initial) it was 100.0%.

Consider “TLGEFLKLDRERAKN (listed as Homo sapiens) [BIR-002, Baculoviral IAP repeat-containing 5 (survivin) peptide]”, for which the “stability of peptides … 1 M” value in data set [1] (+5° C. +/- 3° C.) is on record as 98.53 % of Initial; in data set [1] (+25° C. +/- 2° C.), 97.49 % of Initial; in data set [1] (-20° C. +/- 5° C.) it was 98.43 % of Initial. Also, the figures for the “stability of peptides … 2 M” value in data set [1] (+5° C. +/- 3° C.), in data set [1] (+25° C. +/- 2° C.) and in data set [1] (-20° C. +/- 5° C.) were 97.28 % of Initial, 96.24 % of Initial and 96.98 % of Initial, respectively. For the same sequence, the “stability of peptides … 3 M” value in data set [1] (+5° C. +/- 3° C.) is given as 100.01 % of Initial; in data set [1] (+25° C. +/- 2° C.) it was 98.93 % of Initial; in data set [1] (-20° C. +/- 5° C.), 100.14 % of Initial. For the same sequence, the “stability of peptides … INITIAL” value in data set [1] (+5° C. +/- 3° C.), in data set [1] (+25° C. +/- 2° C.) and in data set [1] (-20° C. +/- 5° C.) was 100.0% throughout. The “in-use stability, Peptide [%]” value was determined as 100.8% in data set [2] (+Mannitol/Lutrol, 2h); 101.2% in data set [2] (+Mannitol/Lutrol, 4h); 100.9% in data set [2] (+Mannitol/Lutrol, 6h); 100.0% in data set [2] (+Mannitol/Lutrol, Initial); 100.6% in data set [2] (no excipients, 2h); 101.4% in data set [2] (no excipients, 4h). For the same sequence, the “in-use stability, Peptide [%]” value was 96.2% in data set [2] (no excipients, 6h) and 100.0% in data set [2] (no excipients, Initial).

As for “TMLARLASA (listed as Homo sapiens) [CSP-001, Chondroitin sulfate proteoglycan 4 peptide]”, the “stability of peptides … 1 M” value in data set [1] (+5° C. +/- 3° C.) is 98.99 % of Initial; in data set [1] (+25° C. +/- 2° C.) it was 98.04 % of Initial; in data set [1] (-20° C. +/- 5° C.) it was 98.99 % of Initial. Further, the “stability of peptides … 2 M” value in data set [1] (+5° C. +/- 3° C.) is listed as 98.05 % of Initial; in data set [1] (+25° C. +/- 2° C.), 96.99 % of Initial; in data set [1] (-20° C. +/- 5° C.) it was 97.61 % of Initial. Also, the “stability of peptides … 3 M” value is recorded as 99.81 % of Initial in data set [1] (+5° C. +/- 3° C.), 98.71 % of Initial in data set [1] (+25° C. +/- 2° C.) and 99.61 % of Initial in data set [1] (-20° C. +/- 5° C.). The “stability of peptides … INITIAL” value in data set [1] (+5° C. +/- 3° C.), in data set [1] (+25° C. +/- 2° C.) and in data set [1] (-20° C. +/- 5° C.) was 100.0% throughout. The “in-use stability, Peptide [%]” value in data set [2] (+Mannitol/Lutrol, 2h) is reported as 100.0%; in data set [2] (+Mannitol/Lutrol, 4h), 100.1%; in data set [2] (+Mannitol/Lutrol, 6h) it was 99.6%; in data set [2] (+Mannitol/Lutrol, Initial), 100.0%; in data set [2] (no excipients, 2h), 99.2%; in data set [2] (no excipients, 4h) it was 99.7%. Also, the “in-use stability, Peptide [%]” value in data set [2] (no excipients, 6h) is 95.0%; in data set [2] (no excipients, Initial), 100.0%.
